Values of other authors in PMC6472351.
Values joined by “and” are separate entries in the source; they are usually repeats but may differ in a detail not shown here. Identical values can stand only once. Like-named read-outs stand apart in the source and are kept apart here.

Experiments:
[1] = molecular target: Histone H3 (Homo sapiens) (UniProt P68431)
[2] = molecular target: Histone H3 (Homo sapiens) (UniProt P68431); remark: listed apart in the source

Substance | Kd [1] | Kd [2]
DIDO PHD (from UniProt Q9BTC0) | 6 µM and 1 µM | 
GLP ankyrin (from UniProt Q9H9B1) |  | 5 µM and 7 µM
